fluorescein = fluorescein label

For one assay, the system named is β. Particulars: AID with β; cited from earlier work.
A further assay has as its target T1, Cav1.2 (α1C) (Homo sapiens, UniProt Q13936).
T1 construct: expressed in transfected cells; host or cells: Xenopus laevis oocytes, mRNA injection
Put plainly: Two-electrode voltage clamp of Xenopus oocytes expressing Cav1.2, microinjected with β proteins. Particulars: for current amplitude increase and change of steady-state activation: Cav1.2 currents, protein injection into oocytes; for Current amplitude, I at 20 mV / Current amplitude, I at 30 mV: Xenopus oocytes, α1.2, mean ± SEM; for Steady-state activation, V1/2 (membrane potential for half-maximal activation) / Steady-state activation, k (slope factor): from I-V curve, mean ± SEM. It counts as cell-based, Xenopus laevis. On the procedure: Preparation of Xenopus laevis oocytes, injection of mRNA of VDCC subunits, and electrophysiological recording and analysis were performed, as described (Kang, M. G., Chen, C. C., Felix, R., Letts, V. A., Frankel, W. N., Mori, Y., and Campbell, K. P. (2001) J Biol Chem 276, 32917-32924). The negative control group were oocytes expressing CaV1.2 (α1C) subunit only by mRNA injection followed by injection of protein buffer (PB). The positive control group were oocytes expressing α1C and β3 subunits by mRNA injection, followed by injection of protein buffer (PB). The oocytes of experimental groups were injected with α1C mRNA followed by injection of VDCC β proteins, two days after the mRNA injection. Injection of protein ([…] of protein per oocyte) was performed similarly as mRNA injection. Oocytes injected with VDCC β proteins were incubated one more day and the expressed calcium channel currents were recorded using the two-electrode voltage-clamp technique.
In order to determine that the bacterially expressed, recombinant proteins were physiologically active, two-electrode, two-voltage-clamp measurements of Xenopus oocytes expressing α1 and microinjected with our protein samples was performed. […] The current amplitude increase and change of steady-state activation are statistically significant in all experimental groups except a group injected with β2a domain I protein.
(In general: In two-electrode clamp one electrode senses voltage and the other passes current.)

For assay [1], the target named is T2, fluorescein-labeled AID peptide (AID motif of the CaV1.1 I-II linker) (Oryctolagus cuniculus, UniProt P07293, M367N).
T2 construct: fluorescein label (chemical, on the amino-terminus); made in house; host or cells: synthetic peptide, HPLC-purified
T2 sequence (P07293 with tags, fused parts or gaps M367N): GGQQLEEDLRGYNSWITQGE
Nature of the assay: AID peptide binding assay (fluorescence polarization): VDCC β constructs titrated against labeled AID peptide. Particulars: identical protein amounts, after incubation with TEV protease, FIG. 6c. The text has this: Fluorescence polarization was used to determine the equilibrium dissociation constant (KD) for the interaction between a fluorescein-labeled AID peptide, purified and various VDCC β constructs. The synthetic peptide was purified by HPLC reverse chromatography using a C18 column (Vydac) with a shallow acetonitrile gradient 20-80% (both solvents were supplemented with 0.05% trifluoracetic acid). Its sequence is derived from the AID motif of: the CaV1.1 I-II linker and is as follows: fluorescein-[…]-COOH (SEQ ID NO: 14). A mutant peptide, fluorescein-[…]-COOH (SEQ ID NO: 15) was prepared, in addition. […] Polarization measurements were taken with an ISS K2 fluorescence spectrophotometer at excitation and emission wavelengths of 492 and 520 nm, respectively, at 20° C., maintained by a temperature-controlled water bath. […] Binding isotherms for the various samples were measured three independent times. Binding data were analyzed in SigmaPlot (SPSS) by nonlinear regression used to fit a binding function as defined by the following equation: […]
where X is the concentration of free ligand, ΔP is the change in fluorescence polarization of the fluorophore (baseline polarization of the labeled peptide alone was subtracted), Bmax is the maximum change in polarization upon saturation and KD is the concentration of ligand required to reach half maximal binding. […]
(Fluorescence polarisation rises when a labelled molecule tumbles more slowly, as on binding a larger partner.)

Assay [2] concerns the target T3, β2a protein (Oryctolagus cuniculus, UniProt P54288).
T3 construct: Equilibrium isotherm titrations were performed with full-length β2a and linkerless core β2a; 8xHis tag followed by a TEV protease site (N, cleaved yes); made in house; host or cells: E. coli BL-21 Tuner with RIL Codon Plus plasmid, modified pET21 vector
Nature of the assay: AID peptide binding assay (fluorescence polarization): AID peptide variants against β2a. Further details: species or system rabbit. Particulars: up to 350 nM β2a protein. The text has this: Fluorescence polarization was used to determine the equilibrium dissociation constant (KD) for the interaction between a fluorescein-labeled AID peptide, purified and various VDCC β constructs. The synthetic peptide was purified by HPLC reverse chromatography using a C18 column (Vydac) with a shallow acetonitrile gradient 20-80% (both solvents were supplemented with 0.05% trifluoracetic acid). Its sequence is derived from the AID motif of: the CaV1.1 I-II linker and is as follows: fluorescein-[…]-COOH (SEQ ID NO: 14). A mutant peptide, fluorescein-[…]-COOH (SEQ ID NO: 15) was prepared, in addition. Increasing concentrations of protein were incubated with 0.5 nM labeled peptide for 10 min in the dark at room temperature. Polarization measurements were taken with an ISS K2 fluorescence spectrophotometer at excitation and emission wavelengths of 492 and 520 nm, respectively, at 20° C., maintained by a temperature-controlled water bath. Polarization measurements were made with integration times on the order of 20 seconds, achieving a standard deviation of 5 percent of signal. Binding isotherms for the various samples were measured three independent times. Binding data were analyzed in SigmaPlot (SPSS) by nonlinear regression used to fit a binding function as defined by the following equation: […]

For assay [3], the target named is T4, β2a protein (Oryctolagus cuniculus, UniProt P54288, P148R).
T4 construct: Equilibrium isotherm titrations were performed with full-length β2a and linkerless core β2a; 8xHis tag followed by a TEV protease site (N, cleaved yes); made in house; host or cells: E. coli BL-21 Tuner with RIL Codon Plus plasmid, modified pET21 vector
T4 sequence (P54288 2-606 isoform P54288-2 P122R): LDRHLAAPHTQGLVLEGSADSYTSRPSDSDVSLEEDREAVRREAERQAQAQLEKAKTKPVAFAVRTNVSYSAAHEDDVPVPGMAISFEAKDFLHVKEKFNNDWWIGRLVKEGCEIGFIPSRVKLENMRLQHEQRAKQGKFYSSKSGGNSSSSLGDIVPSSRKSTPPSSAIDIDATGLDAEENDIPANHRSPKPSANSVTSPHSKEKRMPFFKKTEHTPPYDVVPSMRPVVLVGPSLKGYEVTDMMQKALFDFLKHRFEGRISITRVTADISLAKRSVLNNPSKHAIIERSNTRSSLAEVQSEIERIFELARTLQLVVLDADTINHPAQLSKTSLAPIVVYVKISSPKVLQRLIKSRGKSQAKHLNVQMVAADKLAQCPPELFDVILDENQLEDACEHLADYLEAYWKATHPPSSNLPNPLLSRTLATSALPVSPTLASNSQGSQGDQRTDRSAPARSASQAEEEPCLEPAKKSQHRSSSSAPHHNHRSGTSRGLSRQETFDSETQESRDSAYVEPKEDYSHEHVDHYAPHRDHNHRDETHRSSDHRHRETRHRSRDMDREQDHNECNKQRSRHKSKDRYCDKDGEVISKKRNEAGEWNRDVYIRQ
Particulars: single amino acid change Y to S; cited from earlier work.

T1 sequence (Q13936 whole entry, species assumed): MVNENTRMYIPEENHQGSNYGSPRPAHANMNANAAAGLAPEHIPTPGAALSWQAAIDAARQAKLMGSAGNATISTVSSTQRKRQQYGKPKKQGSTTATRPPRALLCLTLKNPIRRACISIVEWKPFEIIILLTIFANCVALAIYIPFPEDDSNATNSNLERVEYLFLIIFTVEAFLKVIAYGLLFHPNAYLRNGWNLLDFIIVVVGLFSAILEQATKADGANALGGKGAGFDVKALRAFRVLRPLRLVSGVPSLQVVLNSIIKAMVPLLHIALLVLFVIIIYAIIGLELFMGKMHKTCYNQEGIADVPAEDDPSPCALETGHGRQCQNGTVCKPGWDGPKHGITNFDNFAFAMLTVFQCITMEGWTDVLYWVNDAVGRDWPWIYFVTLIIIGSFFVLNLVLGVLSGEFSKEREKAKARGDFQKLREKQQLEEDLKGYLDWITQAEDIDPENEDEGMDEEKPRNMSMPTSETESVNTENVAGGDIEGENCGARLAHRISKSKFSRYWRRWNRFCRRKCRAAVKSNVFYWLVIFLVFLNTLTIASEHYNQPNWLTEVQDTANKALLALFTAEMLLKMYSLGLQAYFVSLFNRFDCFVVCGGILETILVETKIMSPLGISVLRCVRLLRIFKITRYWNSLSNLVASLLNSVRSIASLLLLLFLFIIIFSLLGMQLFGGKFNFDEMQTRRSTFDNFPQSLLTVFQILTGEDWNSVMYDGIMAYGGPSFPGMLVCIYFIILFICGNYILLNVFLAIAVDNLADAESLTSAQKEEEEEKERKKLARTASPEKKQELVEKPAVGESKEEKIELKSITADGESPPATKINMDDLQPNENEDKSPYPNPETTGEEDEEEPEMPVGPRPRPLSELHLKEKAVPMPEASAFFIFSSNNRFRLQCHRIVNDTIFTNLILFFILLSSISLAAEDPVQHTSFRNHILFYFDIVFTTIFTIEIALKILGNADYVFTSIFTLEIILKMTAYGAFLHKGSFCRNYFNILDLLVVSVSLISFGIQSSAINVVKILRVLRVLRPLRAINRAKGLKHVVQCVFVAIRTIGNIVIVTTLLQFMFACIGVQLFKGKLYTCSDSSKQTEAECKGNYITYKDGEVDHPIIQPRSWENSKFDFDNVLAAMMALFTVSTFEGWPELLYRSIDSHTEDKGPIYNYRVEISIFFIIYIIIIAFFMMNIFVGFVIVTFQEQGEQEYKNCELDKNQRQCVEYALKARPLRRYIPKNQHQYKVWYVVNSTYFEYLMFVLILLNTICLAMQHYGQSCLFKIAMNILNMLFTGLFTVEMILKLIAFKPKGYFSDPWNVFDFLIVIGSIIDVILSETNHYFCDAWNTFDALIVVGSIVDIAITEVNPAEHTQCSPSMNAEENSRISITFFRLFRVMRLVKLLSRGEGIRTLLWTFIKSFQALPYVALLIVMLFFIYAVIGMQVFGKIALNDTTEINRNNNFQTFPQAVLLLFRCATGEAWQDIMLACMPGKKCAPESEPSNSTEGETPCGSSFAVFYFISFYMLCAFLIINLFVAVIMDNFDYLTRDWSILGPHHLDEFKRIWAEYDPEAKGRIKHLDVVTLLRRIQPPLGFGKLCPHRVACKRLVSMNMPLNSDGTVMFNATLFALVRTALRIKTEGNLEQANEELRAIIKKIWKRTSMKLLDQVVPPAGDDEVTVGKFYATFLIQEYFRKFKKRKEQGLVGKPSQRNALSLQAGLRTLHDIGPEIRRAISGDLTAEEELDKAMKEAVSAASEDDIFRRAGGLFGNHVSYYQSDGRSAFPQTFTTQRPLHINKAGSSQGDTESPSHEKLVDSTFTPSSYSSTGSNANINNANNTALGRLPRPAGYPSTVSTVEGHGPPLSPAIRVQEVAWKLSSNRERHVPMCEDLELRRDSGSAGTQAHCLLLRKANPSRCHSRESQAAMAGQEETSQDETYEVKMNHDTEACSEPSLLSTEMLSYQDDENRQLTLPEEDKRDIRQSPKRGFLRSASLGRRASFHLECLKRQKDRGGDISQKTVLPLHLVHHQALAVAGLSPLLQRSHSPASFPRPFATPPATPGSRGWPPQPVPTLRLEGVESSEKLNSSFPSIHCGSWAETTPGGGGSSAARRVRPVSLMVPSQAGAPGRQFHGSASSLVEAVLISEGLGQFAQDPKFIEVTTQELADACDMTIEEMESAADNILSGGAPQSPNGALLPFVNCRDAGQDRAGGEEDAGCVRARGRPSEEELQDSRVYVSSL
T3 sequence (P54288 2-606 isoform P54288-2 P122R): as the sequence (P54288 2-606 isoform P54288-2 P122R) above

In general, koff refers to the rate constant with which the complex falls apart. For the substance “AID: α1 interaction domain sequence of the α1 I-II linker that binds β”, in the assay on β, the koff is roughly 0.005 s⁻¹.
As for “Core β2 Pro.: injected recombinant β2a core protein”, in the assay with Cav1.2 (α1C), the “current amplitude increase and change of steady-state activation” value is “corresponds well to full-length protein activity”; the “Current amplitude, I at 20 mV” value was −0.87 ± 0.09 A; the Current amplitude, I at 30 mV is -0.7 ± 0.07 µA; the “Steady-state activation, V1/2 (membrane potential for half-maximal activation)” value is 6.84 ± 0.83 mV. Besides, in the assay with Cav1.2 (α1C), the “Steady-state activation, k (slope factor)” value is 8.43 ± 0.23 mV.
For the substance Core β3 Pro.: β3 core protein, in the assay with Cav1.2 (α1C), the Current amplitude, I at 20 mV was -0.45 ± 0.04 µA; the Current amplitude, I at 30 mV was -0.41 ± 0.03 µA; the “Steady-state activation, V1/2 (membrane potential for half-maximal activation)” value stood at 10.65 ± 4.46 mV; the “Steady-state activation, k (slope factor)” value was determined as 10.06 ± 1.15 mV.
The like results for “Full β2 Pro.: injected recombinant full-length β2a protein, later found to contain mutation P122R” were, in that order, -0.71 ± 0.09 µA, -0.49 ± 0.06 µA, 3.68 ± 0.33 mV and 8.48 ± 0.53 mV.
Turning to “Full β3 Pro.: recombinant full-length rat VDCC β3 subunit protein”, in the assay with Cav1.2 (α1C), the Current amplitude, I at 20 mV is -0.47 ± 0.04 µA; the Current amplitude, I at 30 mV is -0.44 ± 0.03 µA; the “Steady-state activation, V1/2 (membrane potential for half-maximal activation)” value amounted to 10.03 ± 3.36 mV; the “Steady-state activation, k (slope factor)” value came out at 10.56 ± 0.42 mV.
“d1 + d2 β2 Pro.: domain I + domain II prepared by proteolysis of full length protein and subsequent purification”: in the assay with Cav1.2 (α1C), the “current amplitude increase and change of steady-state activation” value is “significant changes in the current amplitude and activation shift”; the Current amplitude, I at 20 mV is -0.44 ± 0.04 µA; the Current amplitude, I at 30 mV was -0.34 ± 0.03 µA; the “Steady-state activation, V1/2 (membrane potential for half-maximal activation)” value was determined as 3.24 ± 0.93 mV. Also, the “Steady-state activation, k (slope factor)” value with Cav1.2 (α1C) came out at 9.49 ± 0.92 mV.
Consider “domain II: β2a domain II released from NusA-domain II fusion by incubation with TEV protease”, for which the “relative binding to labeled AID peptide” value in assay [1] is recorded as “significant binding affinity for the AID”.
For “fluorescein-GGQQLEEDLRGSNSWITQGE-COOH (SEQ ID NO: 15) (fluorescein-GGQQLEEDLRGSNSWITQGE-OH; listed as Oryctolagus cuniculus) [mutant AID peptide, mutant AID peptide with single amino acid change Y to S]”, the “binding of AID peptide to β2a” value with β2a protein [2] was “No binding”. Further, in the assay with β2a protein [3], the “binding capability relative to WT” value is “less than five percent binding capability of WT”.
Regarding “β2a domain I: recombinant β2a domain I, residues 25 to 146”, in assay [1], the “relative binding to labeled AID peptide” value is “negligible”. Besides, in the assay with Cav1.2 (α1C), the Current amplitude, I at 20 mV is -0.16 ± 0.01 µA; the Current amplitude, I at 30 mV was -0.18 ± 0.02 µA; the “Steady-state activation, V1/2 (membrane potential for half-maximal activation)” value is 24.00 ± 3.01 mV; the “Steady-state activation, k (slope factor)” value came out at 12.18 ± 0.49 mV.

(Values after patent US7491523B2, “Voltage-dependent calcium channel beta subunit functional core” (priority 2004, dated 2009).)
